The values that follow come from US20230192896A1 (published 2023).

In general, Kd refers to the constant that tells how readily two partners part at equilibrium. Low values mean a tighter complex, high ones a looser complex.

In the assay the target is free FIXa (activated Factor IX) (UniProt P00740 47-191; P00740 227-461). Briefly: BLI.

Numbering of substitutions follows the chain as printed.

B1: BIIB-9-886 (antibody, V domains shown)
VH: QVQLVQSGAEVKKPGASVKVSCKASGYTFTSYYMHWVRQAPGQGLEWMGIINPSGGSTSYAQKFQGRVTMTRDTSTSTVYMELSSLRSEDTAVYYCARDPAHSYLDAFDIWGQGTMVTVSS
VL: DIQMTQSPSSVSASVGDRVTITCRASQGISSWLAWYQQKPGKAPKLLIYAASSLQSGVPSRFSGSGSGTDFTLTISSLQPEDFATYYCQQASSFPFTFGGGTKVEIK
With B1, binding was characterised by a dissociation constant (Kd) of 30.8 nM.

B2: BIIB-9-1286 (antibody, V domains shown)
VH: QVQLVQSGAEVKKPGASVKVSCKASGYTFTSYYMVWVRQAPGQGLEWMGIINPSGGSTSYAQKFQGRVTMTRDTSTSTVYMELSSLRSEDTAVYYCARVPTYRYSYLAFDIWGQGTMVTVSS
VL: B1 VL with A84V, F96P
B2: the Kd is 31.8 nM.

B3: BIIB-9-625 (antibody, V domains shown)
VH: QLQLQESGPGLVKPSETLSLTCTVSGGSISSSSYAWGWIRQPPGKGLEWIGSIYYSGSTYYNPSLKSRVTISVDTSKNQFSLKLSSVTAADTAVYYCARDRGWYTEVLDIWGQGTMVTVSS
VL: B1 VL with V11L, G28S, W32Y, A34N, A91S, S92D, S93T, F94D, F96P
On to B3, for which the Kd is 11.3 nM. Compared with the last molecule, the Kd is about 2.8-fold lower.

B4: BIIB-9-579 (antibody, V domains shown)
VH: QVQLVQSGAEVKKPGASVKVSCKASGYTFTSYYMVWVRQAPGQGLEWMGIINPSGGSTSYAQKFQGRVTMTRDTSTSTVYMELSSLRSEDTAVYYCARGPWYSYYYMDVWGKGTTVTVSS
VL: B1 VL with V11L, G28S, W32Y, A34N, A50G, S92F
For the molecule B4, the Kd is 11.3 nM.

B5: BIIB-9-1265 (antibody, V domains shown)
VH: B3 VH with A35Y, R101G, G102R, W103H, T105Y, V107L, L108F, I110Y, M116L
VL: B1 VL with A91G, S92N, F96I
Turning to B5, the Kd amounted to 59.8 nM.

B6: BIIB-9-416 (antibody, V domains shown)
VH: QVQLVQSGAEVKKPGASVKVSCKASGYTFTSYYMHWVRQAPGQGLEWMGIINPSGGSTSYAQKFQGRVTMTRDTSTSTVYMELSSLRSEDTAVYYCAREGPMLDYPTYSNWFDPWGQGTLVTVS
VL: EIVMTQSPATLSLSPGERATLSCRASQSVSSYLAWYQQKPGQAPRLLIYDSSNRATGIPARFSGSGSGTDFTLTISSLEPEDFAVYYCQQRVVWPPTFGGGTKVEIK
Molecule B6 gave a Kd of 2.98 nM.

B7: BIIB-9-565 (antibody, V domains shown)
VH: QLQLQESGPGLVKPSETLSLTCTVSGGSISSSSYYWGWIRQPPGKGLEWIGSIYYSGSTYYNPSLKSRVTISVDTSKNQFSLKLSSVTAADTAVYYCARAGMYSSYANWFDPWGQGTLVTVSS
VL: B6 VL with M4L, S51A, R91D, V92S, V93N, W94L, P96F
Regarding B7, the Kd amounted to 15.8 nM.

B8: BIIB-9-1266 (antibody, V domains shown)
VH: B4 VH with V35H, G99D, P100H, W101G, Y102W, S103A, Y104I, Y106G, K112Q
VL: B6 VL with V92L, V93N, W94F, P96F
With B8, binding was characterised by a dissociation constant (Kd) of 42.6 nM. This Kd lies about 2.7-fold higher than the previous one.

B9: BIIB-9-612 (antibody, V domains shown)
VH: B4 VH with V35H, G99D, P100A, W101G, S103H, Y104W, Y106G, K112Q
VL: B6 VL with M4L, S31R, S51A, R91S, V92S, V93L, W94F, P96L
Molecule B9 returned an equilibrium dissociation constant (Kd) of 14 nM. Against the preceding molecule, the Kd is about 3-fold lower.

B10: BIIB-9-1277 (antibody, V domains shown)
VH: QVQLVQSGAEVKKPGASVKVSCKASGYTFTSYYMHWVRQAPGQGLEWMGIINPSGGSTSYAQKFQGRVTMTRDTSTSTVYMELSSLRSEDTAVYYCARGGTGYYYGSGSRDGYHYYYGMDVWGQGTTVTVSS
VL: B6 VL with L13V, S51A, F83L, R91S, V92A, V93N
On to B10, for which binding was characterised by a dissociation constant (Kd) of 58.8 nM.

B11: BIIB-9-452 (antibody, V domains shown)
VH: QVQLVQSGAEVKKPGASVKVSCKASGYTFTSYYMHWVRQAPGQGLEWMGIINPSGGSTSYAQKFQGRVTMTRDTSTSTVYMELSSLRSEDTAVYYCARDGRLSYTWDRWGQGTLVTVSS
VL: EIVMTQSPATLSVSPGERATLSCRASQSVSSNLAWYQQKPGQAPRLLIYGASTRATGIPARFSGSGSGTEFTLTISSLQSEDFAVYYCQQANNFPFTFGGGTKVEIK
Molecule B11 came in with a Kd of 11.7 nM.

B12: BIIB-9-469 (antibody, V domains shown)
VH: QVQLVQSGAEVKKPGASVKVSCKASGYTFTSYYMHWVRQAPGQGLEWMGIINPSGGSTSYAQKFQGRVTMTRDTSTSTVYMELSSLRSEDTAVYYCARDLGYGRSYDFDLWGRGTLVTVSS
VL: B11 VL with Y49F, A91S
Molecule B12 had a Kd of 13.3 nM.

B13: BIIB-9-889 (antibody, V domains shown)
VH: B3 VH with A35Y, R101V, V107Y, L108F, I110L, Q113R, M116L
VL: B11 VL with N92F, F94W, F96P
Regarding B13, the Kd is 40.7 nM.

B14: BIIB-9-566 (antibody, V domains shown)
VH: B2 VH
VL: B11 VL with N32S, A91H, N92D, F94W, F96P
B14 came in with a Kd of 21.4 nM. This Kd is about 1.9-fold lower than that of the molecule before.

B15: BIIB-9-1282 (antibody, V domains shown)
VH: B2 VH
VL: B11 VL with A91H, N93H, F94L, F96I
In turn, B15 yielded a Kd of 43.9 nM.

B16: BIIB-9-446 (antibody, V domains shown)
VH: QVQLVQSGAEVKKPGSSVKVSCKASGGTFSSYAISWVRQAPGQGLEWMGGIIPIFGTASYAQKFQGRVTITADESTSTAYMELSSLRSEDTAVYYCARGLEVGYYGYFDYWGQGTLVTVSS
VL: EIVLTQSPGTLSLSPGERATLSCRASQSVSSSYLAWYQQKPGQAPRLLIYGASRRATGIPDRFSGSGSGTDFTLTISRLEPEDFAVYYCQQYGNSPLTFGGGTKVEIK
In turn, B16 yielded a Kd of 17.5 nM.

B17: BIIB-9-628 (antibody, V domains shown)
VH: QVQLVQSGAEVKKPGASVKVSCKASGYTFTSYYMHWVRQAPGQGLEWMGIINPSGGSTSYAQKFQGRVTMTRDTSTSTVYMELSSLRSEDTAVYYCAREPIAYGATLDLWGRGTLVTVSS
VL: EIVLTQSPGTLSLSPGERATLSCRASQSVSSDYLAWYQQKPGQAPRLLIYGASSRATGIPDRFSGSGSGTDFTLTISRLEPEDFAVYYCQQYVVFPFTFGGGTKVEIK
The molecule B17 registered a Kd of 108 nM.

B18: BIIB-9-884 (antibody, V domains shown)
VH: QLQLQESGPGLVKPSETLSLTCTVSGGSISSSDYYWGWIRQPPGKGLEWIGSIYYSGSTYYNPSLKSRVTISVDTSKNQFSLKLSSVTAADTAVYYCARSPRHKVRGPNWFDPWGQGTLVTVSS
VL: B17 VL with D32S, V93H, V94L, F95L, F97P
The molecule B18 returned a Kd of 1.79 nM. This Kd is about 60-fold lower than that of the molecule before.

B19: BIIB-9-626 (antibody, V domains shown)
VH: QVQLVQSGAEVKKPGASVKVSCKASGYTFTSYYMHWVRQAPGQGLEWMGVINPSGGSTSYAQKFQGRVTMTRDTSTSTVYMELSSLRSEDTAVYYCARDLQYSMTYFDYWGQGTLVTVSS
VL: DIQMTQSPSTLSASVGDRVTITCRASQSISSWLAWYQQKPGKAPKLLIYKASSLESGVPSRFSGSGSGTEFTLTISSLQPDDFATYYCQQDGSYPPLTFGGGTKVEIK
Regarding B19, binding was characterised by a dissociation constant (Kd) of 166 nM.

B20: BIIB-9-1287 (antibody, V domains shown)
VH: B18 VH
VL: EIVLTQSPGTLSLSPGERATLSCRASQSVSSSYLAWYQQKPGQAPRLLIYGASSRATGIPDRFSGSGSGTDFTLTISRLEPEDFAVYYCQQYHLHPTFGGGTKVEIK
With B20, the Kd was found to be 0.669 nM.

B21: BIIB-9-567 (antibody, V domains shown)
VH: QVQLVQSGAEVKKPGASVKVSCKASGYTFTSYYMHWVRQAPGQGLEWMGIINPSGGSTSYAQKFQGRVTMTRDTSTSTVYMELSSLRSEDTAVYYCARLGRRYYAYDGMDVWGQGTTVTVSS
VL: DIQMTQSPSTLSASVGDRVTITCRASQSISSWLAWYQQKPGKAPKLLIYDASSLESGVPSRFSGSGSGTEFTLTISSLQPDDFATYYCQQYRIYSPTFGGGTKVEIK
B21: the Kd is 20.6 nM.

B22: BIIB-9-882 (antibody, V domains shown)
VH: B21 VH with L99G, G100P, R101T, R102D, Y103S, Y104S, A105G, D107L, G108D, Q114K
VL: B11 VL with Y49F, A91H, N92D, F96P
B22 displayed a Kd of 2.31 nM. This Kd lies about 8.9-fold lower than the previous one.

B23: BIIB-9-408 (antibody, V domains shown)
VH: QVQLVQSGAEVKKPGASVKVSCKASGYTFTSYYMHWVRQAPGQGLEWMGIINPSGGSTTYAQKFQGRVTMTRDTSTSTVYMELSSLRSEDTAVYYCARDPGAYDDWSGYDDYGMDVWGQGTTVTVSS
VL: EIVLTQSPATLSLSPGERATLSCRASQSVSSYLAWYQQKPGQAPRLLIYDASNRATGIPARFSGSGSGTDFTLTISSLEPEDFAVYYCQQAFVWPPITFGGGTKVEIK
On to B23, for which the Kd was determined as 1.36 nM.

B24: BIIB-9-1280 (antibody, V domains shown)
VH: B4 VH
VL: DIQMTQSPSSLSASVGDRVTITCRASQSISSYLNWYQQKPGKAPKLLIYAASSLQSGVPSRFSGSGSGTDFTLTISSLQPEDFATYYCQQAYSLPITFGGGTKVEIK
B24: the Kd worked out at 51.7 nM. Against the preceding molecule, the Kd is about 38-fold higher.
